Series [1] deals with the molecule itself. Nature of the series: negative-stain EM single-particle reconstruction.
The series “SEC” deals with the molecule itself. The experiment in a line: SEC.

B1: Mycobacterium tuberculosis Mfd (transcription-repair coupling factor) (natural protein)
chain: MTAPGPACSDTPIAGLVELALSAPTFQQLMQRAGGRPDELTLIAPASARLLVASALARQGPLLVVTATGREADDLAAELRGVFGDAVALLPSWETLPHERLSPGVDTVGTRLMALRRLAHPDDAQLGPPLGVVVTSVRSLLQPMTPQLGMMEPLTLTVGDESPFDGVVARLVELAYTRVDMVGRRGEFAVRGGILDIFAPTAEHPVRVEFWGDEITEMRMFSVADQRSIPEIDIHTLVAFACRELLLSEDVRARAAQLAARHPAAESTVTGSASDMLAKLAEGIAVDGMEAVLPVLWSDGHALLTDQLPDGTPVLVCDPEKVRTRAADLIRTGREFLEASWSVAALGTAENQAPVDVEQLGGSGFVELDQVRAAAARTGHPWWTLSQLSDESAIELDVRAAPSARGHQRDIDEIFAMLRAHIATGGYAALVAPGTGTAHRVVERLSESDTPAGMLDPGQAPKPGVVGVLQGPLRDGVIIPGANLVVITETDLTGSRVSAAEGKRLAAKRRNIVDPLALTAGDLVVHDQHGIGRFVEMVERTVGGARREYLVLEYASAKRGGGAKNTDKLYVPMDSLDQLSRYVGGQAPALSRLGGSDWANTKTKARRAVREIAGELVSLYAKRQASPGHAFSPDTPWQAELEDAFGFTETVDQLTAIEEVKADMEKPIPMDRVICGDVGYGKTEIAVRAAFKAVQDGKQVAVLVPTTLLADQHLQTFGERMSGFPVTIKGLSRFTDAAESRAVIDGLADGSVDIVIGTHRLLQTGVRWKDLGLVVVDEEQRFGVEHKEHIKSLRTHVDVLTMSATPIPRTLEMSLAGIREMSTILTPPEERYPVLTYVGPHDDKQIAAALRRELLRDGQAFYVHNRVSSIDAAAARVRELVPEARVVVAHGQMPEDLLETTVQRFWNREHDILVCTTIVETGLDISNANTLIVERADTFGLSQLHQLRGRVGRSRERGYAYFLYPPQVPLTETAYDRLATIAQNNELGAGMAVALKDLEIRGAGNVLGIEQSGHVAGVGFDLYVRLVGEALETYRDAYRAAADGQTVRTAEEPKDVRIDLPVDAHLPPDYIASDRLRLEGYRRLAAASSDREVAAVVDELTDRYGALPEPARRLAAVARLRLLCRGSGITDVTAASAATVRLSPLTLPDSAQVRLKRMYPGAHYRATTATVQVPIPRAGGLGAPRIRDVELVQMVADLITALAGKPRQHIGITNPSPPGEDGRGRNTTIKERQP
As to B1, the “stoichiometry N” value was 12 in series [1] and 6 in “SEC”.

B2: Mycobacterium smegmatis Mfd (natural protein)
chain: MTAPGHTSVQTPIAGLVELALSDPSLQDVIRRAADRPADLALVGPASARVLVAAALAQNGPLLVVAATGREADELTAELRGVFGDSVALFPSWETLPHERLSPGVETVGARLMLLRRLARPDDETLGAPLRVVVTTTRSLLQPMAPDLVDIEPVTLSVGAEMEFEDVVARLVDLSYTRVDMVGKRGEFAVRGGILDVFPPTAEHPVRVEFWGDEISEMRAFAIADQRSIPEVPVQTVVAVPCRELLMTDDVRERAAALAAEHPTTENTVPGTVPDMLAKLAEGIPVDGMEALLPLLHPIEPTTLTRHLPEGAPVLVCDPEKVRTRAADLIKTGREFLEASWSTAAVGGDAPIDLEALGASGFVTFEEAREAAREGGHPWWTLSQLSDESAVELDIRSAPSARGSQHNLEEIFAMLRAHVATGGYAAVVTPGIGTAHRVVEQLGEADTAATILEPGTAPKAGVVGVLKGPLCSGVVLPGANLVIITETDLTGNRVTANEGRKLAAKRRNVVDPLALTAGDLVVHDQHGIGKFVEMTERVVGGARREYLVLEYASSKRGGGTDKLYVPMDSLDQLSRYVGGEAPSLSRLGGSDWANTKTKARRAVREIASELVALYAKRQSAPGHAFGPDTPWQAEMEDAFGFTETIDQLTAIQEVKSDMEKPVPMDRVICGDVGYGKTEIAVRAAFKAVQDGKQVAVLVPTTLLADQHLQTFTNRMAGFPVTVKGLSRFTDPAESRAVIEGLKDGSVDVVIGTHRLLQTGVTWKDLGLIIVDEEQRFGVEHKEHIKSMRTHVDVLTMSATPIPRTLEMSLAGIREMSTILTPPEERYPVLTYVGPHDDKQVAAALRRELLRDGQAFYIHNRVRTIDEAAARVRQLVPEARVVVAHGQMNEETLEKTVEGFWNREYDILVCTTIVETGLDISNANTLIVERADTFGLSQLHQLRGRVGRSRERGYAYFLYPPNKPLTETAYDRLATIAQNNELGAGMAVAMKDLEIRGAGNVLGAEQSGHVAGVGFDLYVRLVGEAVEAYRAAADGKTVATPQEQKDVRIDLPVDAHLPPEYIGSDRLRLEAYRRLAAAADDDAVASVVDELIDRYGPLPEPAQRLVAVARLRLLCREFGITEIGAVSASTVRLSPMVLPDSAQLRLKRMYPGGHYRATTSTVQVPLPRAGEGVGAPRIRDLELVQWVAGLVLVLNGKGQGDVDMSKFSNPAGEAKR
Consider B2, for which the “stoichiometry N” value in the series “SEC” was 6.
